According to PMC2867956, “Interdomain Interactions Control Ca^2+-Dependent Potentiation in the Cation Channel TRPV4” (PLoS ONE, 2010):
pIC50: −log10 of the molar value. One block for each substance: values may come before it.

Assays:
[1] = target: C2-GST-biotin (C-terminal TRPV4 fragment C2) (human); test: AlphaScreen or HTRF; C2-biotin with CaM-Flag or mutants, Ca2+ concentration varied
[2] = target: N1-YFP (full-length TRPV4 N terminus); test: FRET or BRET; acceptor photobleaching FRET of CFP- and YFP-fused TRPV4 termini coexpressed in HEK293 cells
N1-YFP (full-length TRPV4 N terminus), sequence (Q9HBA0 whole entry, the tested form may be a part): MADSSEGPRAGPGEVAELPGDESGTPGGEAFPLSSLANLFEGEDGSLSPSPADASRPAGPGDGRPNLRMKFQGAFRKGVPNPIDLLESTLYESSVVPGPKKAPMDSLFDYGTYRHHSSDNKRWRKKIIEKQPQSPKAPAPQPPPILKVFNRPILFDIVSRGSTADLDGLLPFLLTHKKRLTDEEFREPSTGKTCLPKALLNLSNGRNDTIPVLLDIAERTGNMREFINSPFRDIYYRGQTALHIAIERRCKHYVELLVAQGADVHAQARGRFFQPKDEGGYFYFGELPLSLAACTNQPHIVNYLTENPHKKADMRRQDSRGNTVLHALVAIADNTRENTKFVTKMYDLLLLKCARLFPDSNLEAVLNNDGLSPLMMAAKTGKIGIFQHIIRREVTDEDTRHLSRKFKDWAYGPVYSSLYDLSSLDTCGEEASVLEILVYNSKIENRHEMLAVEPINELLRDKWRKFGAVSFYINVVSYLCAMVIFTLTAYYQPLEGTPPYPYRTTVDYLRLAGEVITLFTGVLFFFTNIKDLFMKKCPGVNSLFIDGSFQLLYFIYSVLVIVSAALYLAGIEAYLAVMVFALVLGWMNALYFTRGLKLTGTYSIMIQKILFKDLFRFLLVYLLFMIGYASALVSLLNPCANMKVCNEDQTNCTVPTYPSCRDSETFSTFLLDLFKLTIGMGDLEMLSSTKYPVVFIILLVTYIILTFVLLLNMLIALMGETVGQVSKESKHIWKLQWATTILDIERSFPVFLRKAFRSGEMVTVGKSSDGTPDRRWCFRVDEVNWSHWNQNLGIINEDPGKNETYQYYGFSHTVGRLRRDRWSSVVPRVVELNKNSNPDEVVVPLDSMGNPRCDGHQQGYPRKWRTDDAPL

[3] = target: C2-Flag (C-terminal TRPV4 fragment C2) (human); test: AlphaScreen or HTRF; competition: acceptor beads with C2-Flag, donor beads with P2-biotin or C2-biotin, increasing CaM, 100 µM Ca2+ or 1 mM EGTA
C2-Flag (C-terminal TRPV4 fragment C2) (human), sequence (Q9HBA0 whole entry, the tested form may be a part): as above

[4] = target: YFP-fused C1 fragment (full-length TRPV4 C terminus); test: FRET acceptor photobleaching in HEK293 cells; settings: coexpressed in HEK293 cells; 3 independent experiments; parent: est. 35; read off a plot

C2-GST-biotin (C-terminal TRPV4 fragment C2) (human), sequence (Q9HBA0 whole entry, the tested form may be a part): as above
CFP-fused N1 (full-length TRPV4 N terminus) (domain or fragment), sequence (Q9HBA0 whole entry, the tested form may be a part): as above

EC50 of Ca2+ for the interaction [1]: 10.7 µM
Substance: CaM12 (CaM mutant Ca2+ binding-deficient in the N lobe), Flag-tagged (from UniProt P0DP23 1-149) (natural protein)

EC50 of Ca2+ for the interaction [1]: 8.8 µM
Substance: wild type CaM-Flag (from UniProt P0DP23 1-149) (natural protein)

maximal relative donor fluorescence increase after acceptor bleaching [2]: 1.27
Substance: CFP-fused N1 (full-length TRPV4 N terminus) (domain or fragment)

pIC50 [3]: 6.78
Substance: calmodulin (from UniProt P0DP23 1-149) (natural protein)

EC50 of Ca2+ for the interaction [1]: 27 µM
Substance: CaM34 (CaM mutant Ca2+ binding-deficient in the C lobe), Flag-tagged (from UniProt P0DP23 1-149) (natural protein)

response [4]: 25%
Substance: CFP-fused N1 (full-length TRPV4 N terminus) WIA

response [4]: 17%
Substance: CFP-fused N1 (full-length TRPV4 N terminus) KRA
